Test [1] has as its target T1, human GPC3 on cells (human, UniProt P51654 25-554).
T1 construct: GPI-anchored protein on transfected CHO-S cells, on human tumor cell lines or on HEK293T cells; the cell is named under assay; also called human GPC3 on CHO-S transfected cells; HuGPC3-CHO
The test can be described thus: flow cytometry on HepG2 cells (GPC3-high), 24 h at 4 C, anti-human IgG Fc AF647. In general terms: In flow cytometry, cells or beads pass a laser one at a time.
Description: (§1) Briefly, cells were seeded at 50,000 cells/well in V-bottom 96-well plates and treated with antibody for 24 hours at 4° C. to prevent internalization. […] Following incubation and washing, fluorescence was detected by flow cytometry on a BD LSRFortessa™ Cell Analyzer (BD Biosciences, Franklin Lake, NJ) with 1,000 minimum events collected per well. AF647/APC-A GeoMean (fluorescence signal geometric mean, proportional to anti-Human AF647 binding) in live cell population was plotted against antibody concentration using GraphPad Prism Version 9 (GraphPad Software, San Diego, CA). The Bmax, Curve Hill Slope (h) and Kd values were derived from the “Specific binding with Hill slope” nonlinear regression curve fit in GraphPad Prism Version 9.

In test [2] the target is T1, human GPC3 on cells. The test can be described thus: flow cytometry on JHH-7 cells (GPC3-high), 24 h at 4 C, anti-human IgG Fc AF647.
Description: as §1
Test [3] addresses T1, human GPC3 on cells. Description: flow cytometry, CHO-S cells transfected with human GPC3; apparent Kd.
Description: (§2) Briefly, CHO—S cells were transiently transfected for −24 hours with a pTT5-based expression plasmid encoding human GPC3 or cynomolgus monkey GPC3, 0.5 μg DNA per 1 million cells, using the Neon™ Transfection System (Thermo Fisher Scientific Corp., Waltham, MA), to transiently express human or cynomolgus monkey GPC3. Following transfection, cells were seeded at 50,000 cells/well in V-bottom 96-well plates and treated with antibody for 24 hours at 4° C. to prevent internalization. […] Following incubation and washing, fluorescence was detected by flow cytometry on a BD LSRFortessa™ Cell Analyzer (BD Biosciences, Franklin Lake, NJ) with 1,000 minimum events collected per well. AF647/APC-A GeoMean (fluorescence signal geometric mean, proportional to anti-Human AF647 binding) in live cell population was plotted against antibody concentration using GraphPad Prism Version 9 (GraphPad Software, San Diego, CA). The Bmax and Kd values were derived from the “Specific binding with Hill slope” nonlinear regression curve fit in GraphPad Prism Version 9.
Test [4] addresses T1, human GPC3 on cells. The test can be described thus: flow cytometry, JHH-7 cells.
Description: as §1
The target in test [5] is KLH (Sigma-Aldrich, H8283). Description: NS-ELISA, plate coated with KLH, antibody at 100 nM.
Description: 50 μL each of insulin, KLH, dsDNA and ssDNA were added to a 96 well plate, followed by the incubation at 37° C. for 2 h. The coating materials were removed, and the plate was blocked with 200 μL of Gibco™ PBS pH7.4, 0.1% Tween®20, and incubated for 1 h at room temperature with shaking at 200 rpm. The plate was washed 3 times with Gibco™ PBS pH7.4, 0.1% Tween 20. 50 μL of each mAb at 100 nM (15 mg/mL) in Gibco™ PBS pH 7.4, 0.1% Tween®20 was added in duplicate to the wells and incubated for 1 h at room temperature with shaking at 200 rpm. Plates were washed three times with Gibco™ PBS pH7.4, 0.1% Tween 20, and 50 μL of 50 ng/mL anti-human IgG HRP (Thermofisher Scientific©, H₁₀₃₀₇) was added to each well. Plates were incubated for 1 h at room temperature, with shaking at 200 rpm. The plate was washed three times with Gibco™ PBS pH7.4, 0.1% Tween 20, and 100 μL of TMB substrate (Cell Signaling Technology©, 7004P6) added to each well. […] Binding scores were calculated as the ratio of the ELISA signal of the antibody to the signal of a well containing buffer instead of the primary antibody. The cutoffs considered for each binding molecule (ssDNA. KLH, Insulin, dsDNA and Heparin) were internally calculated.
The target of test [6] is T1, human GPC3 on cells. Description: flow cytometry, JHH-7 cells; apparent Kd.
Description: as §1
Test [7] concerns the target T1, human GPC3 on cells. The test can be described thus: flow cytometry, HepG2 cells.
Description: as §1
The target in test [8] is T1, human GPC3 on cells. Description: flow cytometry, HepG2 cells; apparent Kd.
Description: as §1
Test [9] addresses T2, cynomolgus monkey GPC3 on CHO-S transfected cells (cynomolgus monkey, UniProt A5A6P7 25-554 (Pan troglodytes entry)).
T2 construct: transient expression from a pTT5-based plasmid; also called CHO-S Cyno GPC3; CynoGPC3-CHO
Description: flow cytometry, CHO-S cells transfected with cynomolgus monkey GPC3; apparent Kd.
Description: as §2

The target of test [10] is T1, human GPC3 on cells. The test can be described thus: flow cytometry on JHH-5 cells (GPC3-mid), 24 h at 4 C, anti-human IgG Fc AF647.
Description: (§3) Cell lines investigated included GPC3-hi HepG2 and JHH-7 cells, GPC3-mid JHH-5 cells, as well as GPC3-negative SNU-601 cells.
as §1
In test [11] the target is T3, recombinant human GPC3 (ACROBiosystems) (human, UniProt P51654 25-559).
T3 construct: bought antigen of the SPR assays, SEC purified; also called huGPC3; hGPC3
The test can be described thus: SPR, antibody captured on anti-Fc, GPC3 injected, 1:1 fit. (SPR reads the build-up and loss of mass on a sensor chip optically.)
Description: (§4) Antigens: recombinant human and cynomolgus GPC3 was purchased from ACROBiosystems (Newark, DE) and SEC purified on a Superdex 200 10/300 GL column (Cytiva) in PBST running buffer at 0.8 mL/min.
(§5) Screening of the antibodies for binding to GPC3 antigen was conducted via anti-Fc capture of antibodies, followed by the injection of five concentrations of GPC3. The anti-Fc surface was prepared on a CM5 Series S sensor chip by standard amine coupling methods as described by the manufacturer (Cytiva Life Sciences, Mississauga, ON, Canada). […] Approximately 500-600 RUs of each antibody (1-3 μg/mL) were captured on the goat anti-human IgG surface by injecting at 10 μL/min for 60s. Using single-cycle kinetics, five concentrations of a two-fold dilution series of human or cynomolgus GPC3 starting at 40 nM (or 20 nM) with a blank buffer control were injected at 40 μL/min for 180s of contact time, followed by 180 s (or 300 s) dissociation phase, resulting in sensorgrams with a buffer blank reference. The anti-Fc surface was regenerated to prepare for the next injection cycle by one pulse of 10 mM glycine/HCl pH 1.5 for 180 s at 40 μL/min. Blank-subtracted sensorgrams were analyzed using Biacore™ T200 Evaluation Software v3.0. The blank-subtracted sensorgrams were then fit to the 1:1 Langmuir binding model.

The target of test [12] is T4, recombinant cynomolgus GPC3 (ACROBiosystems) (cynomolgus monkey, UniProt A5A6P7 25-559 (Pan troglodytes entry), limits assumed).
T4 construct: bought antigen of the SPR assays; also called cynoGPC3
Described as above.
Description: as §4, §5

Test [13] deals with T5, human GPC3 on cells (human, UniProt P51654 25-554).
T5 construct: whole, on cells; One molecule is used for transfected CHO-S cells and for tumour cell lines that carry GPC3; the cell line is named under assay or readout; also called CHO-S Human GPC3; GPC3 on HepG2, JHH-7, JHH-5, NCI-H446, FU-97, Huh-6, Huh-7, MKN-45 cells
The test can be described thus: flow cytometry, JHH-5 cells.
Description: as §3, §1

For test [14], the target named is T6, cynomolgus monkey GPC3 on CHO-S cells (cynomolgus monkey, UniProt A0A2K5VK50 24-553).
T6 construct: whole, on cells; also called CHO-S Cyno GPC3
Description: flow cytometry, CHO-S cells transfected with cynomolgus monkey GPC3; apparent Kd.
Description: as §2

For test [15], the target named is T6, cynomolgus monkey GPC3 on CHO-S cells. The test can be described thus: flow cytometry, CHO-S cells transfected with cynomolgus monkey GPC3.
Description: as §2
In test [16] the target is T5, human GPC3 on cells. Description: flow cytometry, CHO-S cells transfected with human GPC3.
Description: as §2
Test [17] addresses T5, human GPC3 on cells. Description: flow cytometry, JHH-7 cells.
Description: as §3, §1
In test [18] the target is T5, human GPC3 on cells. The test can be described thus: flow cytometry, HepG2 cells.
Description: as §3, §1
Test [19] deals with T5, human GPC3 on cells. The test can be described thus: flow cytometry, CHO-S cells transfected with human GPC3; apparent Kd.
Description: as §2
Test [20] deals with T1, human GPC3 on cells. The test can be described thus: flow cytometry on JHH-7 cells (GPC3-high), 24 h at 4 C, anti-human IgG Fc AF647. The source holds these as a separate data set.
Description: as §3, §1
Test [21] deals with T1, human GPC3 on cells. The test can be described thus: flow cytometry on HepG2 cells (GPC3-high), 24 h at 4 C, anti-human IgG Fc AF647. The source holds these as a separate data set.
Description: as §3, §1
For test [22], the target named is T7, human glypican-3 (GPC3) (human, UniProt P51654 25-554).
T7 construct: Endogenous on JHH-7, JHH-5, HepG2 and NCI-H446 tumour cells, or transiently expressed on CHO-S cells from a pTT5 plasmid; also called hGPC3; huGPC3
The test can be described thus: flow cytometry on JHH-7 cells (GPC3-high).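 Note: antibody binding at 4 °C for 24 h, detected with anti-human AF647 secondary, geometric mean fluorescence of live cells versus antibody concentration, fitted as specific binding with Hill slope.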
Description: as §1

In test [23] the target is T7, human glypican-3 (GPC3). Description: flow cytometry on JHH-7 cells; antibody in mouse plasma, day 0.
Description: (§6) For binding cells were seeded at 50,000 cells/well in V-bottom 96-well plates and treated with antibody for 24 hours at 4° C. to prevent internalization. […] Following incubation and washing, fluorescence was detected by flow cytometry on a BD LSRFortessa™ Cell Analyzer (BD Biosciences, Franklin Lake, NJ) with 1,000 minimum events collected per well. AF647/APC-A GeoMean (fluorescence signal geometric mean, proportional to anti-Human AF647 binding) in live cell population was plotted against antibody concentration using GraphPad Prism Version 9 (GraphPad Software, San Diego, CA). The Bmax, Curve Hill Slope (h) and Kd values were derived from the “Specific binding with Hill slope” nonlinear regression curve fit in GraphPad Prism Version 9.
The target of test [24] is T8, cynomolgus monkey glypican-3 (GPC3) (cynomolgus monkey, UniProt A5A6P7 25-554 (Pan troglodytes entry)).
T8 construct: Transiently expressed on CHO-S cells; also called cynoGPC3; CynoGPC3-CHO
The test can be described thus: flow cytometry on CHO-S cells transfected with cynomolgus GPC3.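 Note: antibodies incubated 24 h at 4 °C with transiently transfected cells, binding read as AF647 geometric mean fluorescence of live cells, GFP-transfected cells as negative control, Hill-slope specific-binding fit.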
Description: (§7) Briefly, CHO—S cells were transiently transfected for −24 hours with a pTT5-based expression plasmid encoding human GPC3 or cynomolgus monkey GPC3, 0.5 μg DNA per 1 million cells, using the Neon™ Transfection System (Thermo Fisher Scientific Corp., Waltham, MA), to transiently express human or cynomolgus monkey GPC3. Cells transfected with GFP were used as negative transfection controls. Following transfection, cells were seeded at 50,000 cells/well in V-bottom 96-well plates and treated with antibody for 24 hours at 4° C. to prevent internalization. […] Following incubation and washing, fluorescence was detected by flow cytometry on a BD LSRFortessa™ Cell Analyzer (BD Biosciences, Franklin Lake, NJ) with 1,000 minimum events collected per well. AF647/APC-A GeoMean (fluorescence signal geometric mean, proportional to anti-Human AF647 binding) in live cell population was plotted against antibody concentration using GraphPad Prism Version 9 (GraphPad Software, San Diego, CA). The Bmax and Kd values were derived from the “Specific binding with Hill slope” nonlinear regression curve fit in GraphPad Prism Version 9.

Test [25] has as its target T7, human glypican-3 (GPC3). The test can be described thus: flow cytometry on JHH-7 cells; antibody after 14 days in mouse plasma at 37 C.
Description: as §6
Test [26] concerns the target T7, human glypican-3 (GPC3). Description: flow cytometry on JHH-5 cells; antibody after 14 days in mouse plasma at 37 C.
Description: as §6
In test [27] the target is T7, human glypican-3 (GPC3). Description: cell-based or functional assay.
The target of test [28] is T7, human glypican-3 (GPC3). The test can be described thus: flow cytometry on JHH-5 cells (GPC3-mid).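 Note: antibody binding to cells at 4 °C for 24 h, detected with anti-human AF647 as geometric mean fluorescence of live cells versus antibody concentration, fitted by specific binding with Hill slope.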
Description: as §1
Test [29] concerns the target T7, human glypican-3 (GPC3). The test can be described thus: flow cytometry on JHH-5 cells; antibody in mouse plasma, day 0.
Description: as §6
Test [30] has as its target T7, human glypican-3 (GPC3). The test can be described thus: flow cytometry on CHO-S cells transfected with human GPC3.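 Note: antibody binding to transiently transfected CHO-S cells after 24 hours at 4 °C, read as geometric mean fluorescence of anti-human AF647 in live cells, fitted against antibody concentration.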
Description: as §7
Test [31] deals with T7, human glypican-3 (GPC3). The test can be described thus: cell-based or functional assay. The source holds these as a separate data set.

B1: v37574 (M3-H18L6) (antibody, human IgG1, kappa)
heavy: not shown
light: EIVLTQSPATLSLSPGERATISCRSSQSLRHSNGNTYLQWYQQKPGQAPRLLIYKVSNRFSGVPARFSGSGSGTDFTLTISSLEPEDFAVYFCYQSKHVPYTFGGGTKVEIKRTVAAPSVFIFPPSDEQLKSGTASVVCLLNNFYPREAKVQWKVDNALQSGNSQESVTEQDSKDSTYSLSSTLTLSKADYEKHKVYACEVTHQGLSSPVTKSFNRGEC
notes: humanized full-size IgG1 (IGHG1*01)/kappa antibody without heavy chain C-terminal lysine
The term EC50 (read off the curve) denotes the midpoint of the concentration-response curve. For the molecule B1, the “EC50 (read off the curve)” value in the test with human GPC3 on cells [1] is approximately 0.7 nM; in the test with human GPC3 on cells [2], approximately 0.2 nM; with human GPC3 on cells [10] it was approximately 0.2 nM. Moreover, the Kd was determined as 0.53 nM with human GPC3 on cells [3]; 0.22 nM with human GPC3 on cells [6]; 1.1 nM with human GPC3 on cells [8]; 0.38 nM in test [9]; 11.1 nM in test [11]; 11.1 nM in test [12]. Also, the Bmax with human GPC3 on cells [4] is 8520; with human GPC3 on cells [7], 33900. Further, the NS-ELISA binding score in [5] was 0.91 ratio to buffer well.

B2: v38592-MC-GGFG-AM-Compound 139, DAR 8 (antibody, human IgG1, kappa)
heavy: not shown
light: EIVLTQSPATLSLSPGERATISCRSSQSLRHSNGNTYLQWYQQKPGQAPRLLIYKVSNRFSGVPARFSGSGSGTDFTLTISSLEPEDFAVYFCYQSKHVPYTFGGGTKVEIKRTVAAPSVFIFPPSDEQLKSGTASVVCLLNNFYPREAKVQWKVDNALQSGNSQESVTEQDSKDSTYSLSSTLTLSKADYEKHKVYACEVTHQGLSSPVTKSFNRGEC
modifications: MC-GGFG-AM-Compound 139 drug-linker on cysteines (positions not stated); DAR 8 per antibody
notes: Antibody-drug conjugate of v38592
Take B2: the Bmax is 5710 with human GPC3 on cells [13]; 511 in test [15]; 247 with human GPC3 on cells [16]; 4550 with human GPC3 on cells [17]; 3370 in the test with human GPC3 on cells [18]. Moreover, the Kd was 0.51 nM in the test with human GPC3 on cells [13]; 0.7 nM in test [14]; 0.7 nM in the test with human GPC3 on cells [17]; 7.27 nM in the test with human GPC3 on cells [18]; 0.33 nM with human GPC3 on cells [19].

B3: v38592-MC-GGFG-AM-Compound 139, DAR 4 (antibody, human IgG1, kappa)
heavy: not shown
light: EIVLTQSPATLSLSPGERATISCRSSQSLRHSNGNTYLQWYQQKPGQAPRLLIYKVSNRFSGVPARFSGSGSGTDFTLTISSLEPEDFAVYFCYQSKHVPYTFGGGTKVEIKRTVAAPSVFIFPPSDEQLKSGTASVVCLLNNFYPREAKVQWKVDNALQSGNSQESVTEQDSKDSTYSLSSTLTLSKADYEKHKVYACEVTHQGLSSPVTKSFNRGEC
modifications: MC-GGFG-AM-Compound 139 drug-linker on cysteines (positions not stated); DAR 4 per antibody
notes: as for B2
For the molecule B3, the Bmax with human GPC3 on cells [13] came to 5500; in [15], 506; with human GPC3 on cells [16] it was 259; with human GPC3 on cells [17] it was 4730; with human GPC3 on cells [18], 4050. In addition, the Kd with human GPC3 on cells [13] was 0.43 nM; in test [14], 0.55 nM; in the test with human GPC3 on cells [17], 0.88 nM; with human GPC3 on cells [18], 8.69 nM; with human GPC3 on cells [19], 0.29 nM.

B4: v37574 (M3-H18L6) (antibody, human IgG1, kappa)
heavy: not shown
light: EIVLTQSPATLSLSPGERATISCRSSQSLRHSNGNTYLQWYQQKPGQAPRLLIYKVSNRFSGVPARFSGSGSGTDFTLTISSLEPEDFAVYFCYQSKHVPYTFGGGTKVEIKRTVAAPSVFIFPPSDEQLKSGTASVVCLLNNFYPREAKVQWKVDNALQSGNSQESVTEQDSKDSTYSLSSTLTLSKADYEKHKVYACEVTHQGLSSPVTKSFNRGEC
notes: Humanized full-size IgG1/kappa antibody, heavy chains without C-terminal lysine
As to B4, the Bmax worked out at 4350 with human GPC3 on cells [13]; 474 in test [15]; 242 with human GPC3 on cells [16]; 4980 in the test with human GPC3 on cells [17]; 4570 in the test with human GPC3 on cells [18]. The Kd came out at 0.2 nM with human GPC3 on cells [13], 0.39 nM in test [14], 3.31 nM in the test with human GPC3 on cells [17] and 0.2 nM with human GPC3 on cells [19].

B5: v38592-MC-GGFG-AM-Compound 139, DAR 8 (antibody, human IgG1, kappa)
heavy: not shown
light: EIVLTQSPATLSLSPGERATISCRSSQSLRHSNGNTYLQWYQQKPGQAPRLLIYKVSNRFSGVPARFSGSGSGTDFTLTISSLEPEDFAVYFCYQSKHVPYTFGGGTKVEIKRTVAAPSVFIFPPSDEQLKSGTASVVCLLNNFYPREAKVQWKVDNALQSGNSQESVTEQDSKDSTYSLSSTLTLSKADYEKHKVYACEVTHQGLSSPVTKSFNRGEC
modifications: MC-GGFG-AM-Compound 139 drug-linker on reduced cysteines, sites not stated; MC-GGFG-AM-Compound 139 drug-linker on reduced cysteines, sites not stated; DAR 8 for the whole antibody
notes: antibody-drug conjugate
As for B5, the “EC50 (read off the curve)” value is approximately 0.8 nM with human GPC3 on cells [20] and approximately 7 nM in the test with human GPC3 on cells [21].

B6: H18L6_LC_G34R mAb, v40206 (antibody, human IgG1, kappa, V domains shown)
VH: QVQLVQSGAEVKKPGSSVKVSCKASGYTFTDYEMHWVKQAPGHGLEWIGAIDPETGDTAYNQKFKGKATLTADTSTSTAYMELSSLRSEDTAVYYCTRYFSFAYWGQGTLVTVSS
VL: EIVLTQSPATLSLSPGERATISCRSSQSLRHSNRNTYLQWYQQKPGQAPRLLIYKVSNRFSGVPARFSGSGSGTDFTLTISSLEPEDFAVYFCYQSKHVPYTFGGGTKVEIKR
notes: Full-size IgG1/kappa
For B6, the “Bmax (MFI)” value with human glypican-3 (GPC3) [22] was determined as 12500 MFI; in the test with human glypican-3 (GPC3) [23], 9390 MFI; in [24], 2850 MFI; in the test with human glypican-3 (GPC3) [25] it was 9710 MFI; with human glypican-3 (GPC3) [26], 5320 MFI; in the test with human glypican-3 (GPC3) [28], 4910 MFI. Also, the figures for the “Bmax (MFI)” value with human glypican-3 (GPC3) [29] and with human glypican-3 (GPC3) [30] were 5450 MFI and 2450 MFI, respectively. Besides, the Kd with human glypican-3 (GPC3) [22] amounted to 0.34 nM; in the test with human glypican-3 (GPC3) [23], 0.15 nM; in test [24], 0.13 nM; with human glypican-3 (GPC3) [25] it was 0.39 nM; with human glypican-3 (GPC3) [26] it was 0.21 nM; in the test with human glypican-3 (GPC3) [28], 0.19 nM. Further, the Kd with human glypican-3 (GPC3) [29] came to 0.07 nM; in the test with human glypican-3 (GPC3) [30], 0.1 nM. Further, the “JHH-5 Internalization (MFI), Day 0 in mouse plasma” value in the test with human glypican-3 (GPC3) [27] is 13300 MFI. Moreover, in the test with human glypican-3 (GPC3) [27], the “JHH-5 Internalization (MFI), Day 14 in mouse plasma” value amounted to 11100 MFI. In the test with human glypican-3 (GPC3) [27], the “JHH-7 Internalization (MFI), Day 0 in mouse plasma” value stood at 144 MFI. In the test with human glypican-3 (GPC3) [27], the “JHH-7 Internalization (MFI), Day 14 in mouse plasma” value came out at 115 MFI. Further, the “JHH-5 Internalization (MFI)” value with human glypican-3 (GPC3) [31] was found to be 10700 MFI. In addition, the “JHH-7 Internalization (MFI)” value with human glypican-3 (GPC3) [31] came out at 9240 MFI.

Values taken from US20250295799A1 (Zymeworks, published 2025).
